Starred links: 1 amine or outer side, 2 acyl side, 3 side chain; linkers in the order of their positions; H or OH if unused. Positions of bridges follow the written chain, without caps; N, C: chain ends. Non-standard residues stand in square brackets, D forms with d. Primed or numbered codes have the meaning given here. PyrS2″ = (S)-3-amino-1-((pent-4-en-1-yloxy)carbonyl)pyrrolidine-3-carboxylic acid (stapling residue), C=CCCCOC(=O)N1CC[C@@](N[*:1])(C(=O)[*:2])C1; B5(4) = 2,2-bis(4-pentenyl)glycine = 2-amino-2-(pent-4-en-1-yl)hept-6-enoic acid (stitching residue), C=CCCCC(CCCC=C)(N[*:1])C(=O)[*:2]; PyrS2 = (S)-3-amino-1-((pent-4-en-1-yloxy)carbonyl)pyrrolidine-3-carboxylic acid, C=CCCCOC(=O)N1CC[C@@](N[*:1])(C(=O)[*:2])C1; PyrS1 = (S)-3-amino-1-((but-3-en-1-yloxy)carbonyl)pyrrolidine-3-carboxylic acid, C=CCCOC(=O)N1CC[C@@](N[*:1])(C(=O)[*:2])C1; MorphAsn = (S)-2-amino-4-morpholino-4-oxobutanoic acid, O=C(C[C@H](N[*:1])C(=O)[*:2])N1CCOCC1; B5 = 2-amino-2-(pent-4-en-1-yl)hept-6-enoic acid, C=CCCCC(CCCC=C)(N[*:1])C(=O)[*:2]; B6 = 2-amino-2-(hex-5-en-1-yl)oct-7-enoic acid, C=CCCCCC(CCCCC=C)(N[*:1])C(=O)[*:2]; Me2Asn = listed as N4-methyl-L-asparagine, CNC(=O)C[C@H](N[*:1])C(=O)[*:2]; MeAsn = N4-methyl-L-asparagine, CNC(=O)C[C@H](N[*:1])C(=O)[*:2]; Phe(3-COOH) = N[C@@H](Cc1cccc(C(=O)O)c1)C(=O)O; Phe(2-CF3) = N[C@@H](Cc1ccccc1C(F)(F)F)C(=O)O; Bta = N[C@@H](Cc1csc2ccccc12)C(=O)O; αAllylPro = C=CC[C@@]1(C(=O)O)CCCN1; tBuAla = CC(C)(C)C[C@H](N)C(=O)O; 3Thi = N[C@@H](Cc1ccsc1)C(=O)O; Cha = N[C@@H](CC1CCCCC1)C(=O)O; 4ClBztA = not defined here; Ac5c = NC1(C(=O)O)CCCC1; Ac3c = NC1(C(=O)O)CC1; Aib = CC(C)(N)C(=O)O
What follows are binders tested against T1, B-cat-Halo (beta-catenin HaloTag fusion expressed in HEK293 cells) (UniProt P35222 1-781) (assay: cell-based or functional assay).
T1 sequence (looked up): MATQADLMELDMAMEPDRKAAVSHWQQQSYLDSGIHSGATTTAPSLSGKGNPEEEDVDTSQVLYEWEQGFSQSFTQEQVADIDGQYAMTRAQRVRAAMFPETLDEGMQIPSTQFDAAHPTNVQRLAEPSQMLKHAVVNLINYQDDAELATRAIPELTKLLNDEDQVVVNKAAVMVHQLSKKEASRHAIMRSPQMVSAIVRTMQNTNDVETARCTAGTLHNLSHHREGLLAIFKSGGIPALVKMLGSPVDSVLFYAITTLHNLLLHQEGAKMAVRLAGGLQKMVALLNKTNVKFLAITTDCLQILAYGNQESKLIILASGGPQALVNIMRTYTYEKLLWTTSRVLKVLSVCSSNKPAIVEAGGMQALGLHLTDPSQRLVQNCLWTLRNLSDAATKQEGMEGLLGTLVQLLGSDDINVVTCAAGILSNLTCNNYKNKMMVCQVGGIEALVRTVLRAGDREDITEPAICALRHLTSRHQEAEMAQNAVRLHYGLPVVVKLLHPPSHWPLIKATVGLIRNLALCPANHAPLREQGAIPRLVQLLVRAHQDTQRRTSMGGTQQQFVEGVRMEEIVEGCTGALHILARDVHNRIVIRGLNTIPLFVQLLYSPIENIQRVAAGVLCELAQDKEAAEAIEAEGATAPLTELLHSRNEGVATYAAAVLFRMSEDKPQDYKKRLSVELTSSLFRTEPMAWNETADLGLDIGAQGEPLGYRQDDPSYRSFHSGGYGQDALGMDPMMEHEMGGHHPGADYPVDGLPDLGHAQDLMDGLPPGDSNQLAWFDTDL

Row | Binder | NanoBRET Abs IC50 [µM]
1 | Ac-[αAllylPro]D[tBuAla][B5]NT[Aib]AF[MeAsn][PyrS2][3Thi][Bta]N-NH2 (staple 1-4, 4-11) [I-2497] | > 20
2 | Ac-[αAllylPro]D[tBuAla][B5(4)]D[Phe(3-COOH)]QAFL[PyrS2″][Phe(2-CF3)][4ClBztA]A-NH2 (staple 1-4, 4-11; reading uncertain) [I-2491] | 6.1
3 | Ac-[αAllylPro]N[Cha][B5]DQQAFL[PyrS2]F[Bta][MorphAsn]-NH2 (staple 1-4, 4-11) [I-2504] | > 20
4 | Ac-[αAllylPro]D[tBuAla][B5(4)]D[Phe(3-COOH)]QAFL[PyrS2″][Phe(2-CF3)][7ClBztA]A-NH2 (staple 1-4, 4-11) [I-2487] | 4.2
5 | Ac-[αAllylPro]D[tBuAla][B5(4)]D[Phe(3-COOH)]AAFL[PyrS2″][Phe(2-CF3)][7ClBztA]Q-NH2 (staple 1-4, 4-11) [I-2486] | 3.7
6 | Ac-[αAllylPro]D[tBuAla][B5]NT[Aib]AFN[PyrS2][3Thi][Bta][MeAsn]-NH2 (staple 1-4, 4-11) [I-2495] | > 20
7 | Ac-[αAllylPro]N[Cha][B5]DQ[Me2Gln]AFL[PyrS2]F[Bta][MorphAsn]-NH2 (staple 1-4, 4-11) [I-2501] | > 20
8 | Ac-[αAllylPro]D[tBuAla][B5(4)]NT[Ac3c]AFN[PyrS2″][3Thi][Bta]Q-NH2 (staple 1-4, 4-11) [I-2492] | > 20
9 | Ac-[αAllylPro]D[tBuAla][B6]D[Phe(3-COOH)]AAFL[PyrS1][Phe(2-CF3)][Bta]Q-NH2 (staple 1-4, 4-11) [I-2508] | 27.3
10 | Ac-[αAllylPro]D[tBuAla][B5(4)]D[Phe(3-COOH)]AAFL[PyrS2″][Phe(2-CF3)][4ClBztA]Q-NH2 (staple 1-4, 4-11; reading uncertain) [I-2490] | 6.4
11 | Ac-[αAllylPro]D[tBuAla][B5(4)]D[Phe(3-COOH)]QAFL[PyrS2″][Phe(2-CF3)][7FBztA]A-NH2 (staple 1-4, 4-11) [I-2489] | 7.4
12 | Ac-[αAllylPro]D[tBuAla][B5]NT[Aib]AF[Me2Asn][PyrS2][3Thi][Bta]N-NH2 (staple 1-4, 4-11) [I-2496] | > 20
13 | Ac-[αAllylPro]D[tBuAla][B5(4)]D[Phe(3-COOH)]AAFL[PyrS2″][Phe(2-CF3)][7FBztA]Q-NH2 (staple 1-4, 4-11) [I-2488] | 3.6
14 | Ac-[αAllylPro]D[tBuAla][B5(4)]NT[Ac5c]AFN[PyrS2″][3Thi][Bta]Q-NH2 (staple 1-4, 4-11) [I-2493] | > 20
15 | Ac-[αAllylPro]D[tBuAla][B5]NT[Aib]AFN[PyrS2][3Thi][Bta][Me2Asn]-NH2 (staple 1-4, 4-11) [I-2494] | > 20
